Reference: publication PMC9482650, “Quantitative fragmentomics allow affinity mapping of interactomes” (Nature Communications, 2022)

What was measured:
Experiment in all cases: holdup assay
Parameters in all cases: key: below the threshold = too weak to quantify, mostly under pKd 3.1 to 4
Settings in all cases: plain residues with an end cap or a label only (N-terminal biotin on a linker: ttds)
CARD11, Q9BXL7 = biological target: T1, CARD11, Q9BXL7
T1 sequence (Q9BXL7 662-765, limits assumed, looked up): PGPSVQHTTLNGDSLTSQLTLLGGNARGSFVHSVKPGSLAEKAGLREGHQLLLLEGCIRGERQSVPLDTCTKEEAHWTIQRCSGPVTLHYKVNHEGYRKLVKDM

CASK, O14936 = biological target: CASK, O14936
DFNB31_1, Q9P202 = biological target: T2, DFNB31_1, Q9P202
T2 sequence (Q9P202 135-233, limits assumed, looked up): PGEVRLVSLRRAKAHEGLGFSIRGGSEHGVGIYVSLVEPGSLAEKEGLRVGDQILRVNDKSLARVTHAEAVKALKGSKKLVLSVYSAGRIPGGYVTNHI

DLG2_2, Q15700 = biological target: DLG2_2, Q15700
DLG2_3, Q15700 = biological target: DLG2_3, Q15700
DVL3, Q92997 = biological target: T3, DVL3, Q92997
T3 sequence (Q92997 244-331, limits assumed, looked up): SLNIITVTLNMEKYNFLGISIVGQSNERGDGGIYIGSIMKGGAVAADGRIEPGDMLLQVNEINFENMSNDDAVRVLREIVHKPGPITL

FRMPD2_2, Q68DX3 = biological target: FRMPD2_2, Q68DX3
FRMPD4, Q14CM0 = biological target: FRMPD4, Q14CM0
GORASP2, Q9H8Y8 = biological target: GORASP2, Q9H8Y8
GRASP, Q7Z6J2 = biological target: GRASP, Q7Z6J2
GRIP1_7, Q9Y3R0 = biological target: T4, GRIP1_7, Q9Y3R0
T4 sequence (Q9Y3R0 999-1096, limits assumed, looked up): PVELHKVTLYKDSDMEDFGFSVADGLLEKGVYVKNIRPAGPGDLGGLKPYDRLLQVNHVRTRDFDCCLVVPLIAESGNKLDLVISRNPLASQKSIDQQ

IL16_1, Q14005 = biological target: IL16_1, Q14005
IL16_4, Q14005 = biological target: IL16_4, Q14005
Inadl_1, Q8NI35 = biological target: Inadl_1, Q8NI35
Inadl_4, Q8NI35 = biological target: Inadl_4, Q8NI35
LIMK2, P53671 = biological target: LIMK2, P53671
LRRC7, Q96NW7 = biological target: T5, LRRC7, Q96NW7
T5 sequence (Q96NW7 1440-1537, limits assumed, looked up): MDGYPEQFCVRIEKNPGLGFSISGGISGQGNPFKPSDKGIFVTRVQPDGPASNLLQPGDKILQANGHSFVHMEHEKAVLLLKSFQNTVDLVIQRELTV

MAGI1_2, Q96QZ7 = biological target: MAGI1_2, Q96QZ7
MAGI2_2, Q86UL8 = biological target: MAGI2_2, Q86UL8
MAST1, Q9Y2H9 = biological target: MAST1, Q9Y2H9
MAST2, Q6P0Q8 = biological target: MAST2, Q6P0Q8
MPDZ_12, O75970 = biological target: T6, MPDZ_12, O75970
T6 sequence (O75970 1857-1958, limits assumed, looked up): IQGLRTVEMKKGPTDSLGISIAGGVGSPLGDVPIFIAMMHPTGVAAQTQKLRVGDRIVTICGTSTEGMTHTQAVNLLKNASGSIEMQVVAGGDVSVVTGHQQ

MPP7, Q5T2T1 = biological target: T7, MPP7, Q5T2T1
T7 sequence (Q5T2T1 134-230, limits assumed, looked up): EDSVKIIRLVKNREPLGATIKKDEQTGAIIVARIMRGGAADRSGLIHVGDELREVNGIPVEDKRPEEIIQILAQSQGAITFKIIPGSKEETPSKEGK

NHERF2_2, Q15599 = biological target: NHERF2_2, Q15599
NOS1, P29475 = biological target: NOS1, P29475
PCLO, Q9Y6V0 = biological target: T8, PCLO, Q9Y6V0
T8 sequence (Q9Y6V0 4491-4600, limits assumed, looked up): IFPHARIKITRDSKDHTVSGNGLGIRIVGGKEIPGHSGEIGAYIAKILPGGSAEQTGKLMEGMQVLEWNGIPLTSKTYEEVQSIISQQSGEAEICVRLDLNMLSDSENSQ

PTPN3, P26045 = biological target: PTPN3, P26045
RHPN1, Q8TCX5 = biological target: T9, RHPN1, Q8TCX5
T9 sequence (Q8TCX5 508-602, limits assumed, looked up): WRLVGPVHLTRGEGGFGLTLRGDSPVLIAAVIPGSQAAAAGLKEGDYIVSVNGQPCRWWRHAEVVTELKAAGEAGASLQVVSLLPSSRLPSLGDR

SCRIB_1, Q14160 = biological target: SCRIB_1, Q14160
TJP1_3, Q07157 = biological target: TJP1_3, Q07157
Sequence of TJP1_3, Q07157 (Q07157 416-512): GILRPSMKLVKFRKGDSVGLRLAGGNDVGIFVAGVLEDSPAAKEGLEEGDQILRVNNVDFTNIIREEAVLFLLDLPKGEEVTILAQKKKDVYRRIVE

Sequence of MAGI2_2, Q86UL8 (Q86UL8 410-522): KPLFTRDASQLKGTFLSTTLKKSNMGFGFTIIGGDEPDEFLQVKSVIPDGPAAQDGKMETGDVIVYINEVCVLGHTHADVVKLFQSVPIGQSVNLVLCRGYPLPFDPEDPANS
Sequence of LIMK2, P53671 (P53671 143-248): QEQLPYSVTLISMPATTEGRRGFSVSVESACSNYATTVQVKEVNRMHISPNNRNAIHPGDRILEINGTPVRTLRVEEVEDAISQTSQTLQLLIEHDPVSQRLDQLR
Sequence of Inadl_1, Q8NI35 (Q8NI35 113-229): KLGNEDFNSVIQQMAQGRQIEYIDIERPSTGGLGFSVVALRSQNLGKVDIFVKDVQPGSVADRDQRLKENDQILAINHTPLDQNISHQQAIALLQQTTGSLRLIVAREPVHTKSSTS
Sequence of SCRIB_1, Q14160 (Q14160 718-814): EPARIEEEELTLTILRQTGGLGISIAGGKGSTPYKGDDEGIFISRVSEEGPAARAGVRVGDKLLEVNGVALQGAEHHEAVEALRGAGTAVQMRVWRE
Sequence of IL16_4, Q14005 (Q14005 1229-1329): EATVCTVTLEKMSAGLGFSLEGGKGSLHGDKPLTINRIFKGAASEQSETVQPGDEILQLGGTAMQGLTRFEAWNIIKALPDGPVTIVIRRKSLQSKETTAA
Sequence of MAST1, Q9Y2H9 (Q9Y2H9 962-1065): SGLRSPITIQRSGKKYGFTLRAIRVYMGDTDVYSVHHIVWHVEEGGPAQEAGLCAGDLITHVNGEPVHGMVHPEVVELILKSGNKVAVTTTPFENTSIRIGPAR
Sequence of Inadl_4, Q8NI35 (Q8NI35 547-651): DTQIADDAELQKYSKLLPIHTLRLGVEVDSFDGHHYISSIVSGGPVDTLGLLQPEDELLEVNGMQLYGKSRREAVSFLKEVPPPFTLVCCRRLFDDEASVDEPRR
Sequence of NHERF2_2, Q15599 (Q15599 142-238): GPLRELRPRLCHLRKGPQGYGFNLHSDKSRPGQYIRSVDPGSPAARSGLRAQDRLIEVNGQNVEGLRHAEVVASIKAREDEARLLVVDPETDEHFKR
Sequence of FRMPD2_2, Q68DX3 (Q68DX3 944-1038): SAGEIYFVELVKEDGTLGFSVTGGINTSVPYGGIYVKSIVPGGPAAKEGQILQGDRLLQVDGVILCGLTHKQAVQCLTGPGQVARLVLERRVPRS
Sequence of FRMPD4, Q14CM0 (Q14CM0 67-160): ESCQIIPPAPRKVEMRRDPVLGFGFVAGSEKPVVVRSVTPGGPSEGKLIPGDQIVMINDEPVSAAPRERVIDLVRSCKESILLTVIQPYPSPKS
Sequence of MAST2, Q6P0Q8 (Q6P0Q8 1099-1202): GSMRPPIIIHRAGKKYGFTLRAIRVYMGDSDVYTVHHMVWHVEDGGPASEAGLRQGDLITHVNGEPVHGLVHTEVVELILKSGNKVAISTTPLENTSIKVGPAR
Sequence of NOS1, P29475 (P29475 9-101): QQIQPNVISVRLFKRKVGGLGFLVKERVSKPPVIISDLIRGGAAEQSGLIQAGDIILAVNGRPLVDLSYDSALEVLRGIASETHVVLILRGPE
Sequence of PTPN3, P26045 (P26045 505-587): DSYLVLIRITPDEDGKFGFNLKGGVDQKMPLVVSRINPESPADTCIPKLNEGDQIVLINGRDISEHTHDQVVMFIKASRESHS
Sequence of IL16_1, Q14005 (Q14005 210-306): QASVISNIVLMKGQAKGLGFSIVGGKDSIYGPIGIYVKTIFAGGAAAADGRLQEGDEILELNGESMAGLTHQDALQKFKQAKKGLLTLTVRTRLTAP
Sequence of GRASP, Q7Z6J2 (Q7Z6J2 96-193): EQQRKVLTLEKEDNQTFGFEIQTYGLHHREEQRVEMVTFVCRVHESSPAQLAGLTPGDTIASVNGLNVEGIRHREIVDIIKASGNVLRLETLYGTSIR
Sequence of CASK, O14936 (O14936 487-570): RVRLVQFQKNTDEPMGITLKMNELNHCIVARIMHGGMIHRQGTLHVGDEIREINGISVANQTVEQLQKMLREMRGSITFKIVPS
Sequence of MAGI1_2, Q96QZ7 (Q96QZ7 456-580): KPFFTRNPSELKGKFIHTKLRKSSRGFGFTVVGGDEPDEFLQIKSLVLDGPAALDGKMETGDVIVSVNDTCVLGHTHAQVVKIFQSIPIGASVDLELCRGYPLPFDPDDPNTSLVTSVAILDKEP

With QSARYRDTEL [TJP2, Q9UDY2] the pKd (CARD11, Q9BXL7) was “below the threshold”, the pKd (CASK, O14936) was “below the threshold” and the pKd (DFNB31_1, Q9P202) was 3.57. The pKd (DLG2_2, Q15700) was 3.61, the pKd (DLG2_3, Q15700) was 3.8 and the pKd (DVL3, Q92997) was “below the threshold”. The pKd (FRMPD2_2, Q68DX3) was “below the threshold”, the pKd (FRMPD4, Q14CM0) was 4.35 and the pKd (GORASP2, Q9H8Y8) was “below the threshold”. For the same binder, the pKd (GRASP, Q7Z6J2) was “below the threshold”, the pKd (GRIP1_7, Q9Y3R0) was 3.82 and the pKd (IL16_1, Q14005) was “below the threshold”. The pKd (IL16_4, Q14005) was “below the threshold”, the pKd (Inadl_1, Q8NI35) was “below the threshold” and the pKd (Inadl_4, Q8NI35) was “below the threshold”. The pKd (LIMK2, P53671) was “below the threshold”, the pKd (LRRC7, Q96NW7) was 3.86 and the pKd (MAGI1_2, Q96QZ7) was “below the threshold”. The pKd (MAGI2_2, Q86UL8) was “below the threshold”, the pKd (MAST1, Q9Y2H9) was 4.26 and the pKd (MAST2, Q6P0Q8) was 5.7. The pKd (MPDZ_12, O75970) was “below the threshold”, the pKd (MPP7, Q5T2T1) was “below the threshold” and the pKd (NHERF2_2, Q15599) was 4.12. The pKd (NOS1, P29475) was 3.75, the pKd (PCLO, Q9Y6V0) was “below the threshold” and the pKd (PTPN3, P26045) was 4.98. For the same binder, the pKd (RHPN1, Q8TCX5) was 4.03, the pKd (SCRIB_1, Q14160) was 4.46 and the pKd (TJP1_3, Q07157) was “below the threshold”.

In the case of VLRLQSETSV [VANGL1, Q8TAA9], the pKd (CARD11, Q9BXL7) is reported as “below the threshold”, the pKd (CASK, O14936) is reported as “below the threshold” and the pKd (DFNB31_1, Q9P202) is reported as 4.03. For the same binder, the pKd (DLG2_2, Q15700) was 4.58, the pKd (DLG2_3, Q15700) was 4.71 and the pKd (DVL3, Q92997) was “below the threshold”. For the same binder, the pKd (FRMPD2_2, Q68DX3) was 3.72, the pKd (FRMPD4, Q14CM0) was “below the threshold” and the pKd (GORASP2, Q9H8Y8) was “below the threshold”. The pKd (GRASP, Q7Z6J2) was “below the threshold”, the pKd (GRIP1_7, Q9Y3R0) was 3.73 and the pKd (IL16_1, Q14005) was 3.7. For the same binder, the pKd (IL16_4, Q14005) was “below the threshold”, the pKd (Inadl_1, Q8NI35) was “below the threshold” and the pKd (Inadl_4, Q8NI35) was “below the threshold”. For the same binder, the pKd (LIMK2, P53671) was “below the threshold”, the pKd (LRRC7, Q96NW7) was “below the threshold” and the pKd (MAGI1_2, Q96QZ7) was 4.37. The pKd (MAGI2_2, Q86UL8) was 4.47, the pKd (MAST1, Q9Y2H9) was “below the threshold” and the pKd (MAST2, Q6P0Q8) was 5.56. For the same binder, the pKd (MPDZ_12, O75970) was “below the threshold”, the pKd (MPP7, Q5T2T1) was “below the threshold” and the pKd (NHERF2_2, Q15599) was 3.75. For the same binder, the pKd (NOS1, P29475) was 3.75, the pKd (PCLO, Q9Y6V0) was “below the threshold” and the pKd (PTPN3, P26045) was 4.97. The pKd (RHPN1, Q8TCX5) was 4.37, the pKd (SCRIB_1, Q14160) was 5.53 and the pKd (TJP1_3, Q07157) was “below the threshold”.

In the case of PKTPPTDTSV [KIR3DL3, Q8N743], the pKd (CARD11, Q9BXL7) is reported as “below the threshold”, the pKd (CASK, O14936) is reported as “below the threshold” and the pKd (DFNB31_1, Q9P202) is reported as 3.69. For the same binder, the pKd (DLG2_2, Q15700) was “below the threshold”, the pKd (DLG2_3, Q15700) was 3.77 and the pKd (DVL3, Q92997) was “below the threshold”. For the same binder, the pKd (FRMPD2_2, Q68DX3) was “below the threshold”, the pKd (FRMPD4, Q14CM0) was 3.78 and the pKd (GORASP2, Q9H8Y8) was 4.04. For the same binder, the pKd (GRASP, Q7Z6J2) was “below the threshold”, the pKd (GRIP1_7, Q9Y3R0) was “below the threshold” and the pKd (IL16_1, Q14005) was “below the threshold”. The pKd (IL16_4, Q14005) was “below the threshold”, the pKd (Inadl_1, Q8NI35) was 3.57 and the pKd (Inadl_4, Q8NI35) was “below the threshold”. For the same binder, the pKd (LIMK2, P53671) was “below the threshold”, the pKd (LRRC7, Q96NW7) was “below the threshold” and the pKd (MAGI1_2, Q96QZ7) was “below the threshold”. For the same binder, the pKd (MAGI2_2, Q86UL8) was “below the threshold”, the pKd (MAST1, Q9Y2H9) was “below the threshold” and the pKd (MAST2, Q6P0Q8) was 4.7. The pKd (MPDZ_12, O75970) was “below the threshold”, the pKd (MPP7, Q5T2T1) was “below the threshold” and the pKd (NHERF2_2, Q15599) was “below the threshold”. The pKd (NOS1, P29475) was “below the threshold”, the pKd (PCLO, Q9Y6V0) was “below the threshold” and the pKd (PTPN3, P26045) was 4.48. The pKd (RHPN1, Q8TCX5) was “below the threshold”, the pKd (SCRIB_1, Q14160) was 3.69 and the pKd (TJP1_3, Q07157) was “below the threshold”.

GQDSREETQL [KCNT2, Q6UVM3] was tested, and the pKd (CARD11, Q9BXL7) was “below the threshold”, the pKd (CASK, O14936) was “below the threshold” and the pKd (DFNB31_1, Q9P202) was 3.82. For the same binder, the pKd (DLG2_2, Q15700) was 4.47, the pKd (DLG2_3, Q15700) was “below the threshold” and the pKd (DVL3, Q92997) was “below the threshold”. The pKd (FRMPD2_2, Q68DX3) was “below the threshold”, the pKd (FRMPD4, Q14CM0) was 4.48 and the pKd (GORASP2, Q9H8Y8) was “below the threshold”. The pKd (GRASP, Q7Z6J2) was “below the threshold”, the pKd (GRIP1_7, Q9Y3R0) was “below the threshold” and the pKd (IL16_1, Q14005) was “below the threshold”. The pKd (IL16_4, Q14005) was “below the threshold”, the pKd (Inadl_1, Q8NI35) was “below the threshold” and the pKd (Inadl_4, Q8NI35) was “below the threshold”. For the same binder, the pKd (LIMK2, P53671) was “below the threshold”, the pKd (LRRC7, Q96NW7) was “below the threshold” and the pKd (MAGI1_2, Q96QZ7) was 4.5. The pKd (MAGI2_2, Q86UL8) was “below the threshold”, the pKd (MAST1, Q9Y2H9) was 5.14 and the pKd (MAST2, Q6P0Q8) was 5.91. For the same binder, the pKd (MPDZ_12, O75970) was “below the threshold”, the pKd (MPP7, Q5T2T1) was “below the threshold” and the pKd (NHERF2_2, Q15599) was 5.17. For the same binder, the pKd (NOS1, P29475) was 4.05, the pKd (PCLO, Q9Y6V0) was “below the threshold” and the pKd (PTPN3, P26045) was 4.9. For the same binder, the pKd (RHPN1, Q8TCX5) was 5, the pKd (SCRIB_1, Q14160) was 4.57 and the pKd (TJP1_3, Q07157) was “below the threshold”.
